US6232070A, “Pharmacological targeting of mRNA cap formation” (priority 1999, dated 2001)

Assays:
[1] = substrate: Nc1ncnc2c1ncn2[C@@H]1O[C@H](COP(=O)(O)OP(=O)(O)OP(=O)(O)O)[C@@H](O)[C@H]1O; experiment: ATP hydrolysis by Cet1p, manganese-dependent; assay type: biochemical, Saccharomyces cerevisiae; conditions: other: 2 mM MnCl2, pH 7.0, 30° C., double-reciprocal plot
Method: (FIG. 8A) Protein titration. Reaction mixtures (10 μl) containing 50 mM Tris HCl (pH 7.0), 5 mM DTT, 2 mM MnCl2, 1 mM [γ^32 P]ATP, and either Cet1p, Cet1(201-549)p, or Cet1(246-549)p were incubated for 15 min at 30° C. Pi release is plotted as a function of input protein. (FIG. 8B) Kinetics. Reaction mixtures (100 μl) containing 50 mM Tris HCl (pH 7.0), 5 mM DTT, 2 mM MnCl2, 1 mM [γ^32 P]ATP, and either 8, 16, or 32 nM Cet1p were incubated at 30° C. Aliquots (10 μl ) were withdrawn at the times indicated and quenched immediately by the addition of […] of 5 M formic acid. Pi release is plotted as a function of time. (FIG. 8C) Hydrolysis of [α^32 P]ATP. […] The products were analyzed by TLC. […] An otherwise identical reaction containing 1 mM [γ^32 P]ATP was analyzed in parallel; Pi release (.cndot.). […]
The extent of ^32 Pi release from [γ^32 P]ATP during a 15 min reaction was proportional to the amount of input Cet1p protein (FIG. 8A). ^32 Pi accumulated with time over 30 min; the rate of reaction varied linearly with Cet1p concentration (FIG. 8B). From a plot of initial rate versus enzyme concentration, a turnover number of 25 s^-1 was calculated. Cet1p catalyzed the quantitative conversion of [α^32P]ATP to [α^32 P]ADP. […] No formation of [α^32 P]AMP from [α^32 P]ATP was detected, even after 20-45 min of incubation, by which time all of the nucleotide had been converted to ADP. […]

[2] = substrate: Nc1ncnc2c1ncn2[C@@H]1O[C@H](COP(=O)(O)OP(=O)(O)OP(=O)(O)O)[C@@H](O)[C@H]1O; experiment: ATP hydrolysis by Cet1(201-549)p; assay type: biochemical, Saccharomyces cerevisiae; conditions: other: ATP hydrolysis by the truncated enzyme; pH 7.0; 30.0 °C
Method: (FIG. 8A) Protein titration. Reaction mixtures (10 μl) containing 50 mM Tris HCl (pH 7.0), 5 mM DTT, 2 mM MnCl2, 1 mM [γ^32 P]ATP, and either Cet1p, Cet1(201-549)p, or Cet1(246-549)p were incubated for 15 min at 30° C. Pi release is plotted as a function of input protein. (FIG. 8B) Kinetics. Reaction mixtures (100 μl) containing 50 mM Tris HCl (pH 7.0), 5 mM DTT, 2 mM MnCl2, 1 mM [γ^32 P]ATP, and either 8, 16, or 32 nM Cet1p were incubated at 30° C. Aliquots (10 μl ) were withdrawn at the times indicated and quenched immediately by the addition of […] of 5 M formic acid. Pi release is plotted as a function of time. (FIG. 8C) Hydrolysis of [α^32 P]ATP. Reaction mixtures (100 μl) containing 50 mM Tris HCl (pH 7.0), 5 mM DTT, 2 mM MnCl2, 1 mM [α^32 P]ATP, and 100 ng of Cet1p were incubated at 30° C. Aliquots (10 μl) were withdrawn at the times indicated and quenched with formic acid. The products were analyzed by TLC. The levels of [α^32 P]ADP (o) and [α^32 P]AMP (q) are plotted as a function of time. An otherwise identical reaction containing 1 mM [γ^32 P]ATP was analyzed in parallel; Pi release (.cndot.). (FIG. 8D) ATP-dependence. Reaction mixtures (20 μl) containing 50 mM Tris HCl (pH 7.0), 5 mM DTT, 2 mM MnC2, 40 pg of Cet1p, and [γ^32 P]ATP as indicated were incubated for 15 min at 30° C. Pi release is plotted as a function of ATP concentration. […]

Protein | Km [1] [µM] | Km [2] [µM]
Cet1p (Saccharomyces cerevisiae S288C) (protein, the two truncated proteins were as active as full-length Cet1p in hydrolyzing ATP; His-tag; made in house; host or cells: Escherichia coli BL21(DE3)) MSYTDNPPQTKRALSLDDLVNHDENEKVKLQKLSEAANGSRPFAENLESDINQTETGQAAPIDNYKESTGHGSHSQKPKSRKSSNDDEETDTDDEMGASGEINFDSEMDFDYDKQHRNLLSNGSPPMNDGSDANAKLEKPSDDSIHQNSKSDEEQRIPKQGNEGNIASNYITQVPLQKQKQTEKKIAGNAVGSVVKKEEEANAAVDNIFEEKATLQSKKNNIKRDLEVLNEISASSKPSKYRNVPIWAQKWKPTIKALQSINVKDLKIDPSFLNIIPDDDLTKSVQDWVYATIYSIAPELRSFIELEMKFGVIIDAKGPDRVNPPVSSQCVFTELDAHLTPNIDASLFKELSKYIRGISEVTENTGKFSIIESQTRDSVYRVGLSTQRPRFLRMSTDIKTGRVGQFIEKRHVAQLLLYSPKDSYDVKISLNLELPVPDNDPPEKYKSQSPISERTKDRVSYIHNDSCTRIDITKVENHNQNSKSRQSETTHEVELEINTPALLNAFDNITNDSKEYASLIRTFLNNGTIIRRKLSSLSYEIFEGSKKVM | 2.8 | 
Cet1(201-549)p (Saccharomyces cerevisiae S288C) (protein, The kinetic parameters determined for ATP hydrolysis by Cet1(201-549)p; His-tag; made in house; host or cells: Escherichia coli BL21(DE3)) ANAAVDNIFEEKATLQSKKNNIKRDLEVLNEISASSKPSKYRNVPIWAQKWKPTIKALQSINVKDLKIDPSFLNIIPDDDLTKSVQDWVYATIYSIAPELRSFIELEMKFGVIIDAKGPDRVNPPVSSQCVFTELDAHLTPNIDASLFKELSKYIRGISEVTENTGKFSIIESQTRDSVYRVGLSTQRPRFLRMSTDIKTGRVGQFIEKRHVAQLLLYSPKDSYDVKISLNLELPVPDNDPPEKYKSQSPISERTKDRVSYIHNDSCTRIDITKVENHNQNSKSRQSETTHEVELEINTPALLNAFDNITNDSKEYASLIRTFLNNGTIIRRKLSSLSYEIFEGSKKVM |  | 3.3
